According to patent publication US20140348747A1:

Assays:
Assay in all cases: cell-based or functional assay
[1] = molecular target: wild-type non-luminescent polypeptide (WT fragment of residues 1-156 of NanoLuc)
NLpep9-HT = molecular target: NLpep9-HT
NLpep53-HT = molecular target: NLpep53-HT

Substance | luminescence after complementation (relative; unit not given) [1] | luminescence after complementation (RLU(mutant)/RLU(WT)) (NLpep9-HT) | luminescence after complementation (RLU(mutant)/RLU(WT)) (NLpep53-HT)
HT-NLpep A169L | 1.11 |  | 
HT-NLpep A169N | 0.911 |  | 
HT-NLpep C164N | 0.0874 |  | 
HT-NLpep C164T | 0.0116 |  | 
HT-NLpep G157N | 0.641 |  | 
HT-NLpep I167E | 0.277 |  | 
HT-NLpep I167F | 0.283 |  | 
HT-NLpep I167Q | 0.0178 |  | 
HT-NLpep L163V | 0.173 |  | 
HT-NLpep L163Y | 0.0512 |  | 
HT-NLpep T159K | 0.049 |  | 
HT-NLpep T159Q | 0.398 |  | 
HT-NLpep V158A | 0.135 |  | 
HT-NLpep V158Q | 0.0445 |  | 
HT-NLpep W161K | 0.0002 |  | 
NLpep-HT A169R | 0.501 |  | 
NLpep-HT C164A | 0.0858 |  | 
NLpep-HT C164H | 0.76 |  | 
NLpep-HT C164K | 0.0005 |  | 
NLpep-HT C164L | 1.02 |  | 
NLpep-HT C164M | 3.26 |  | 

Substance | luminescence after complementation (relative; unit not given) [1] | luminescence after complementation (RLU(mutant)/RLU(WT)) (NLpep9-HT) | luminescence after complementation (RLU(mutant)/RLU(WT)) (NLpep53-HT)
NLpep-HT C164N | 0.108 |  | 
NLpep-HT C164T | 0.0084 |  | 
NLpep-HT G157C | 0.0468 |  | 
NLpep-HT G157H | 0.573 |  | 
NLpep-HT G157P | 0.0543 |  | 
NLpep-HT I167E | 0.244 |  | 
NLpep-HT I167F | 0.179 |  | 
NLpep-HT I167Q | 0.117 |  | 
NLpep-HT I167V | 1.08 |  | 
NLpep-HT L163I | 0.292 |  | 
NLpep-HT L163K | 0.0786 |  | 
NLpep-HT L163T | 0.0262 |  | 
NLpep-HT L163Y | 0.196 |  | 
NLpep-HT R166K | 1.21 |  | 
NLpep-HT T159Q | 0.031 |  | 
NLpep-HT T159V | 0.0455 |  | 
NLpep-HT V158I | 1.6 |  | 
NLpep-HT V158S | 0.0838 |  | 
NLpep-HT W161E | 0.0012 |  | 
NLpep-HT W161F | 0.0717 |  | 
NLpep-HT W161K | 0.0008 |  | 

Substance | luminescence after complementation (relative; unit not given) [1] | luminescence after complementation (RLU(mutant)/RLU(WT)) (NLpep9-HT) | luminescence after complementation (RLU(mutant)/RLU(WT)) (NLpep53-HT)
NLpep-HT W161T | 0.01 |  | 
NLpep-HT W161V | 0.005 |  | 
NLpep-HT W161Y | 0.215 |  | 
NLpoly D108N |  | 2.08 | 1.88
NLpoly F31I |  | 4.1 | 2.83
NLpoly F31L |  | 3.13 | 2.86
NLpoly F31V |  | 2.12 | 2.12
NLpoly G67D |  | 1.78 | 1.57
NLpoly L18Q |  | 3.81 | 2.99
NLpoly N33K |  | 2.15 | 1.76
NLpoly N144T |  | 3.69 | 2.26
NLpoly N156D |  | 1.57 | 1.21
NLpoly N156S |  | 1.04 | 1.4
NLpoly Q20K |  | 4.43 | 2.33
NLpoly Q32R |  | 1.52 | 1.04
NLpoly R112N |  | 1.61 | 1.45
NLpoly T13I |  | 2.18 | 1.44
NLpoly V58A |  | 1.88 | 1.07
NLpoly V157D |  | 4.98 | 3.02

Continued, values first:

luminescence after complementation (relative; unit not given) [1] | luminescence after complementation (RLU(mutant)/RLU(WT)) (NLpep9-HT) | luminescence after complementation (RLU(mutant)/RLU(WT)) (NLpep53-HT) | Substance
0.846 |  |  | HT-NLpep A169E
0.985 |  |  | HT-NLpep A169R
0.945 |  |  | HT-NLpep A169T
0.114 |  |  | HT-NLpep G157D
0.196 |  |  | HT-NLpep G157E
0.938 |  |  | HT-NLpep G157H
1.99 |  |  | HT-NLpep G157S
0.0464 |  |  | HT-NLpep I167R
0.877 |  |  | HT-NLpep I167V
0.0885 |  |  | HT-NLpep L163K
0.0259 |  |  | HT-NLpep L163T
1.09 |  |  | HT-NLpep R166K
0.103 |  |  | HT-NLpep R166N
0.566 |  |  | HT-NLpep T159V
0.608 |  |  | HT-NLpep V158I
0.077 |  |  | HT-NLpep V158K
0.0487 |  |  | HT-NLpep V158S
0.0028 |  |  | HT-NLpep W161T
0.0086 |  |  | HT-NLpep W161V
0.789 |  |  | NLpep-HT A169E
0.905 |  |  | NLpep-HT A169L
1.78 |  |  | NLpep-HT A169N
1.37 |  |  | NLpep-HT A169T
13.3 |  |  | NLpep-HT C164F
0.0211 |  |  | NLpep-HT C164Q

luminescence after complementation (relative; unit not given) [1] | luminescence after complementation (RLU(mutant)/RLU(WT)) (NLpep9-HT) | luminescence after complementation (RLU(mutant)/RLU(WT)) (NLpep53-HT) | Substance
0.0202 |  |  | NLpep-HT C164S
1.01 |  |  | NLpep-HT C164Y
0.549 |  |  | NLpep-HT G157D
1.45 |  |  | NLpep-HT G157E
3.31 |  |  | NLpep-HT G157N
1.72 |  |  | NLpep-HT G157S
0.0469 |  |  | NLpep-HT I167R
0.119 |  |  | NLpep-HT L163V
0.118 |  |  | NLpep-HT R166N
0.0307 |  |  | NLpep-HT T159K
0.144 |  |  | NLpep-HT V158A
0.192 |  |  | NLpep-HT V158K
0.0397 |  |  | NLpep-HT V158Q
 | 1.98 | 2.34 | NLpoly G15S
 | 1.22 | 1.29 | NLpoly G67S
 | 0.44 | 1.81 | NLpoly I56N
 | 1.07 | 1.35 | NLpoly I59T
 | 2.08 | 2.05 | NLpoly K75E
 | 2.89 | 2.16 | NLpoly L149M
 | 1.27 | 1.31 | NLpoly M106I
 | 1.3 | 1.4 | NLpoly M106V
 | 2.1 | 1.56 | NLpoly N33R
 | 3.37 | 2.09 | NLpoly R11N
 | 1.99 | 1.7 | NLpoly V27M
